Experimental data as given in the supplement of paper PMC11246515.
± gives the standard deviation of the averaged measurements.

Assay: total protein half-life in vivo (active degradation + dilution); higher = more stable protein
[1] = E. coli NCM3722 delta-clpP delta-lon delta-hslV, growth: N-lim chemostat, doubling time 6 h
[2] = E. coli NCM3722 delta-hslV, growth: N-lim chemostat, doubling time 6 h
[3] = E. coli NCM3722 delta-lon, growth: N-lim chemostat, doubling time 6 h
[4] = wild type E. coli NCM3722, growth: C-lim chemostat, doubling time 3 h
[5] = wild type E. coli NCM3722, growth: C-lim chemostat, doubling time 6 h
[6] = wild type E. coli NCM3722, growth: C-lim chemostat, doubling time 12 h
[7] = wild type E. coli NCM3722, growth: P-lim chemostat, doubling time 12 h
[8] = E. coli NCM3722 delta-smpB, growth: N-lim chemostat, doubling time 6 h
[9] = wild type E. coli NCM3722, growth: N-lim chemostat, doubling time 6 h
[10] = E. coli NCM3722 delta-clpP, growth: N-lim chemostat, doubling time 6 h
[11] = wild type E. coli NCM3722, growth: N-lim chemostat, doubling time 12 h
[12] = wild type E. coli NCM3722, growth: P-lim chemostat, doubling time 6 h

## MGKTNDWLDFDQLAEEKVRDALKPPSMYKVILVNDDYTPMEFVIDVLQKFFSYDVERATQLMLAVHYQGKAICGVFTAEVAETKVAMVNKYARENEHPLLCTLEKA [P0A8Q6]
[1]
  total protein half-life in vivo: 5.9 ± 0.35 h
[2]
  total protein half-life in vivo: 0.855 ± 0.013 h
[3]
  total protein half-life in vivo: 1.05 h
[4]
  total protein half-life in vivo: 0.522 h
[5]
  total protein half-life in vivo: 0.628 h
[6]
  total protein half-life in vivo: 0.456 h
[7]
  total protein half-life in vivo: 0.869 h

## MGMLEARELLCERDERTLFSGLSFTLNAGEWVQITGSNGAGKTTLLRLLTGLSRPDAGEVLWQGQPLHQVRDSYHQNLLWIGHQPGIKTRLTALENLHFYHRDGDTAQCLEALAQAGLAGFEDIPVNQLSAGQQRRVALARLWLTRATLWILDEPFTAIDVNGVDRLTQRMAQHTEQGGIVILTTHQPLNVAESKIRRISLTQTRAA
[1]
  total protein half-life in vivo: 6.22 h
[8]
  total protein half-life in vivo: 5.33 h
[9]
  total protein half-life in vivo: 5.94 ± 0.86 h

## MGNNLLSAKATLPVYDLNNLAPRIVHLGFGAFHRAHQGVYADILATEHFSDWGYYEVNLIGGEQQIADLQQQDNLYTVAEMSADVWTARVVGVVKKALHVQIDGLETVLAAMCEPQIAIVSLTITEKGYFHSPATGQLMLDHPMVAADVQNPHQPKTATGVIVEALARRKAAGLPAFTVMSCDNMPENGHVMRDVVTSYAQAVDVKLAQWIEDNVTFPSTMVDRIVPAVTEDTLAKIEQLTGVRDPAGVACEPFRQWVIEDNFVAGRPEWEKAGAELVSDVLPYEEMKLRMLNGSHSFLAYLGYLAGYQHINDCMEDEHYRYAAYGLMLQEQAPTLKVQGVDLQDYANRLIARYSNPALRHRTWQIAMDGSQKLPQRMLDSVRWHLAHDSKFDLLALGVAGWMRYVGGVDEQGNPIEISDPLLPVIQKAVQSSAEGKARVQSLLAIKAIFGDDLPDNSLFTARVTETYLSLLAHGAKATVAKYSVK
[1]
  total protein half-life in vivo: 5.14 ± 0.34 h
[10]
  total protein half-life in vivo: 3.3 ± 0.17 h
[2]
  total protein half-life in vivo: 3.4445 ± 0.0012 h
[8]
  total protein half-life in vivo: 2.77 ± 0.18 h
[4]
  total protein half-life in vivo: 1.95 ± 0.0085 h
[5]
  total protein half-life in vivo: 4.22 h
[6]
  total protein half-life in vivo: 6.21 ± 3.1 h
[9]
  total protein half-life in vivo: 3.63 ± 0.19 h
[11]
  total protein half-life in vivo: 5.47 ± 0.58 h
[12]
  total protein half-life in vivo: 3.61 ± 0.7 h
[7]
  total protein half-life in vivo: 7.36 ± 0.28 h

## MGNNLMQTDLSVWGMYQHADIVVKCVMIGLILASVVTWAIFFSKSVEFFNQKRRLKREQQLLAEARSLNQANDIAADFGSKSLSLHLLNEAQNELELSEGSDDNEGIKERTSFRLERRVAAVGRQMGRGNGYLATIGAISPFVGLFGTVWGIMNSFIGIAQTQTTNLAVVAPGIAEALLATAIGLVAAIPAVVIYNVFARQIGGFKAMLGDVAAQVLLLQSRDLDLEASAAAHPVRVAQKLRAG [P0ABU7]
[1]
  total protein half-life in vivo: 6.15 ± 0.21 h
[10]
  total protein half-life in vivo: 6.38 ± 2.2 h
[8]
  total protein half-life in vivo: 1.58 ± 1 h
[4]
  total protein half-life in vivo: 1.68 ± 0.17 h
[5]
  total protein half-life in vivo: 1.99 h
[6]
  total protein half-life in vivo: 3.22 h
[12]
  total protein half-life in vivo: 1.38 h
[7]
  total protein half-life in vivo: 3.56 h

## MGQQKQRNRRWVLASRPHGAPVPENFRLEEDDVATPGEGQVLLRTVYLSLDPYMRGRMSDEPSYSPPVDIGGVMVGGTVSRVVESNHPDYQSGDWVLGYSGWQDYDISSGDDLVKLGDHPQNPSWSLGVLGMPGFTAYMGLLDIGQPKEGETLVVAAATGPVGATVGQIGKLKGCRVVGVAGGAEKCRHATEVLGFDVCLDHHADDFAEQLAKACPKGIDIYYENVGGKVFDAVLPLLNTSARIPVCGLVSSYNATELPPGPDRLPLLMATVLKKRIRLQGFIIAQDYGHRIHEFQREMGQWVKEDKIHYREEITDGLENAPQTFIGLLKGKNFGKVVIRVAGDD
[1]
  total protein half-life in vivo: 4.9643 ± 0.002 h
[10]
  total protein half-life in vivo: 5.13 ± 1.2 h
[2]
  total protein half-life in vivo: 5.03 ± 0.36 h
[3]
  total protein half-life in vivo: 4.74 ± 0.34 h
[8]
  total protein half-life in vivo: 4.16 ± 0.6 h
[4]
  total protein half-life in vivo: 3.3 ± 0.29 h
[5]
  total protein half-life in vivo: 5.53 ± 0.19 h
[6]
  total protein half-life in vivo: 10.3 ± 1 h
[9]
  total protein half-life in vivo: 4.48 ± 0.35 h
[11]
  total protein half-life in vivo: 7.42 ± 0.32 h
[12]
  total protein half-life in vivo: 5.59 ± 0.22 h
[7]
  total protein half-life in vivo: 10.9 ± 0.62 h

## MGQSKKLNKQPSSLSPLVQLAGIRKCFDGKEVIPQLDLTINNGEFLTLLGPSGCGKTTVLRLIAGLETVDSGRIMLDNEDITHVPAENRYVNTVFQSYALFPHMTVFENVAFGLRMQKTPAAEITPRVMEALRMVQLETFAQRKPHQLSGGQQQRVAIARAVVNKPRLLLLDESLSALDYKLRKQMQNELKALQRKLGITFVFVTHDQEEALTMSDRIVVMRDGRIEQDGTPREIYEEPKNLFVAGFIGEINMFNATVIERLDEQRVRANVEGRECNIYVNFAVEPGQKLHVLLRPEDLRVEEINDDNHAEGLIGYVRERNYKGMTLESVVELENGKMVMVSEFFNEDDPDFDHSLDQKMAINWVESWEVVLADEEHK
[1]
  total protein half-life in vivo: 7.21 ± 0.97 h
[2]
  total protein half-life in vivo: 5.83 ± 0.062 h
[3]
  total protein half-life in vivo: 5.7 ± 0.78 h
[8]
  total protein half-life in vivo: 5.77 ± 0.36 h
[4]
  total protein half-life in vivo: 3.46 ± 0.65 h
[5]
  total protein half-life in vivo: 6.55 ± 0.38 h
[6]
  total protein half-life in vivo: 11.9 ± 0.32 h
[11]
  total protein half-life in vivo: 12.2 ± 0.83 h
[12]
  total protein half-life in vivo: 6.41 ± 0.34 h
[7]
  total protein half-life in vivo: 13.4 ± 0.35 h
